%inhibition data for 3 substances are collected here from EP0817650B1.

By %inhibition is commonly meant the percentage by which the read-out fell short of the control.

Experiment [1] deals with MHC Class II products on splenic antigen-presenting cells of SJL mice (H-2 s) (mouse). The experiment in a line: flow cytometry, inhibition of binding to SJL splenic APC; competitor: biotinylated peptide IIIa. On the technique in general: In flow cytometry, cells or beads pass a laser one at a time.
Experiment [2] deals with MHC Class II products on splenic antigen-presenting cells of C57BL/6 mice (H-2 b) (mouse) (UniProt P14434). Nature of the experiment: flow cytometry, inhibition of binding to C57BL/6 splenic APC; competitor: biotinylated peptide Ia.
Experiment [3] concerns the target MHC Class II products on splenic antigen-presenting cells of SJL mice (H-2 s) (mouse). Nature of the experiment: flow cytometry, inhibition of binding to SJL splenic APC; competitor: biotinylated peptide Ia.
In experiment [4] the target is T1, MHC Class II products on splenic antigen-presenting cells of BALB/c mice (H-2 d) (mouse) (UniProt P04228).
T1 sequence (alpha): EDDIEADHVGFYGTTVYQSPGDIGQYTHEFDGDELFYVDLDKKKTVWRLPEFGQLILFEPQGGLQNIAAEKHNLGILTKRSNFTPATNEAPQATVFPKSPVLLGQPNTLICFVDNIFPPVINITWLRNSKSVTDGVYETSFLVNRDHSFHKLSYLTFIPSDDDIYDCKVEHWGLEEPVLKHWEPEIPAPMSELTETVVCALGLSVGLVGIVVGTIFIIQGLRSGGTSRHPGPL
T1 sequence (beta): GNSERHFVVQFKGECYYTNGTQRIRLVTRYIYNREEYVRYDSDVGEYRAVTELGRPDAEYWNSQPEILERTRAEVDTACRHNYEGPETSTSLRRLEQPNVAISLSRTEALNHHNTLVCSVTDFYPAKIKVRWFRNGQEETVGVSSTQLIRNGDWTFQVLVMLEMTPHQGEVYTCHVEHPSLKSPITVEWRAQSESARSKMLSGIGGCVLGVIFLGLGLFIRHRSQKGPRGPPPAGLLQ
Nature of the experiment: flow cytometry, inhibition of binding to BALB/c splenic APC; competitor: biotinylated peptide IIIa.

The target of experiment [5] is MHC Class II products on splenic antigen-presenting cells of C57BL/6 mice (H-2 b) (mouse) (UniProt P14434). Nature of the experiment: flow cytometry, inhibition of binding to C57BL/6 splenic APC; competitor: biotinylated peptide IIIa.
The target in experiment [6] is T1, MHC Class II products on splenic antigen-presenting cells of BALB/c mice (H-2 d) (mouse). The experiment in a line: flow cytometry, inhibition of binding to BALB/c splenic APC; competitor: biotinylated peptide Ia.
In experiment [7] the target is MHC Class II products on splenic antigen-presenting cells of C3H.SW mice (H-2 b) (mouse) (UniProt P14434). The experiment in a line: flow cytometry, inhibition of binding to C3H.SW splenic APC; competitor: biotinylated peptide Ia.
The target is the same in experiment [8]. The experiment in a line: flow cytometry, inhibition of binding to C3H.SW splenic APC; competitor: biotinylated peptide IIIa.

“MKD6 (anti-I-A^d, Beckton-Dickinson) (antibody)”: the %inhibition in experiment [1] is 0%; in experiment [2], 0%; in experiment [3], 0%; in experiment [4], 100%; in experiment [5], 0%; in experiment [6], 76.7%. The results for the %inhibition in experiment [7] and in experiment [8] were 0% and 25%, respectively.
For the substance “34-5-3 (anti-I-A^b, Pharmingen) (antibody)”, the %inhibition turned out to be 82% in experiment [2]; 0% in experiment [4]; 59.3% in experiment [5]; 0% in experiment [6]; 60% in experiment [7]; 84.4% in experiment [8].
Turning to 10.3.6.2 (anti-I-A^s) (antibody), the results for the %inhibition in experiment [1] and in experiment [3] were 92.8% and 100%, respectively.
